Laboratory results published in paper PMC10528418 (Molecular cell, 2023).

T1: TFIIIC subunit τ138 (S. cerevisiae, UniProt P34111 1-1160)
T1 sequence (looked up): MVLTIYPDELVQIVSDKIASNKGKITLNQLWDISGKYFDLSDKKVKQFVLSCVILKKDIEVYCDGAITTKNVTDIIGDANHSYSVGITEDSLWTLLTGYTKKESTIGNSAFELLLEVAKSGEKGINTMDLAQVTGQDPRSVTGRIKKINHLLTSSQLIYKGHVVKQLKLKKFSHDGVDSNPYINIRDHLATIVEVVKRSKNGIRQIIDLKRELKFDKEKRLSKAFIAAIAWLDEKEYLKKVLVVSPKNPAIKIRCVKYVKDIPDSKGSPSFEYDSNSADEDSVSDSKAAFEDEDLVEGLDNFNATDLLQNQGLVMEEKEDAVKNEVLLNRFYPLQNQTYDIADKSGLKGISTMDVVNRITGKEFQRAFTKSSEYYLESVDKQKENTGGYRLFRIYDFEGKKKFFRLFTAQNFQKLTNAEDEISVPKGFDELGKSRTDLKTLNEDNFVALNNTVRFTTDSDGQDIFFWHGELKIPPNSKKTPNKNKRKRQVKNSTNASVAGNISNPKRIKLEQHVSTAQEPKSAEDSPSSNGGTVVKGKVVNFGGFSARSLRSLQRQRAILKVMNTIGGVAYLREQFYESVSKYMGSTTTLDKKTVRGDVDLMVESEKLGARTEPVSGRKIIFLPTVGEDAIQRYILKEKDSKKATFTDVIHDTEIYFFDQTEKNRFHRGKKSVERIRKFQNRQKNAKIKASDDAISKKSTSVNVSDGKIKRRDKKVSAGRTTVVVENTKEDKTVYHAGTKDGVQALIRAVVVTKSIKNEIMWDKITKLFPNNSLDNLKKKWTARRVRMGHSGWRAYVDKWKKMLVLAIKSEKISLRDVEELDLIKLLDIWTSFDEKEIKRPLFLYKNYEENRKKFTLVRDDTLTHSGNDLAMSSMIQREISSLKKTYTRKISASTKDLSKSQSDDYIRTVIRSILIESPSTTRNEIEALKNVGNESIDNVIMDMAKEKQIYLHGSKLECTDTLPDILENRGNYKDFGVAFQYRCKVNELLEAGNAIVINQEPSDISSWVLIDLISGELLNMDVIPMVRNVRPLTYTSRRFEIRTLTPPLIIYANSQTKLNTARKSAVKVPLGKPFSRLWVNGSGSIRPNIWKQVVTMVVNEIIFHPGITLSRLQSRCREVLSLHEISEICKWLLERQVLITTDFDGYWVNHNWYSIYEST

T2: TFIIIC subunit τ95 (S. cerevisiae, UniProt P32367 1-649)
T2 sequence (looked up): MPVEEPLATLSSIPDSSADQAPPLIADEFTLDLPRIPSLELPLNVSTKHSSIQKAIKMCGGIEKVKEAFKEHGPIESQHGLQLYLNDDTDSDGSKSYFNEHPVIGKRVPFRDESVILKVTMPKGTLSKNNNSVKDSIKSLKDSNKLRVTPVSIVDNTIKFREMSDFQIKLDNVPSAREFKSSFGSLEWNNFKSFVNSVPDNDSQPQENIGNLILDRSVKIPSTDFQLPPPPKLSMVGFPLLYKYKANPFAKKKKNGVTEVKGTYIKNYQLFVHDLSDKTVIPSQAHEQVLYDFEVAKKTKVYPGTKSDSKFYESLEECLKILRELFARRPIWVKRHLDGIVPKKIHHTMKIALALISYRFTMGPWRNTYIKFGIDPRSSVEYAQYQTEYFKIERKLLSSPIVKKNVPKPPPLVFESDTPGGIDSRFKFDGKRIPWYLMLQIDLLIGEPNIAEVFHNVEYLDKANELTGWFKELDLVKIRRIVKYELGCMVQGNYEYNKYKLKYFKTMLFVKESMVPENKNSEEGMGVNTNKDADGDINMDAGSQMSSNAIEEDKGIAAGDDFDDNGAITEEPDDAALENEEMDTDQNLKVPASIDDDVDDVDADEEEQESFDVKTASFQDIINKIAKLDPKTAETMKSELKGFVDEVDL

T3: TFIIIC subunit τ91 (S. cerevisiae, UniProt Q06339 1-672)
T3 sequence (looked up): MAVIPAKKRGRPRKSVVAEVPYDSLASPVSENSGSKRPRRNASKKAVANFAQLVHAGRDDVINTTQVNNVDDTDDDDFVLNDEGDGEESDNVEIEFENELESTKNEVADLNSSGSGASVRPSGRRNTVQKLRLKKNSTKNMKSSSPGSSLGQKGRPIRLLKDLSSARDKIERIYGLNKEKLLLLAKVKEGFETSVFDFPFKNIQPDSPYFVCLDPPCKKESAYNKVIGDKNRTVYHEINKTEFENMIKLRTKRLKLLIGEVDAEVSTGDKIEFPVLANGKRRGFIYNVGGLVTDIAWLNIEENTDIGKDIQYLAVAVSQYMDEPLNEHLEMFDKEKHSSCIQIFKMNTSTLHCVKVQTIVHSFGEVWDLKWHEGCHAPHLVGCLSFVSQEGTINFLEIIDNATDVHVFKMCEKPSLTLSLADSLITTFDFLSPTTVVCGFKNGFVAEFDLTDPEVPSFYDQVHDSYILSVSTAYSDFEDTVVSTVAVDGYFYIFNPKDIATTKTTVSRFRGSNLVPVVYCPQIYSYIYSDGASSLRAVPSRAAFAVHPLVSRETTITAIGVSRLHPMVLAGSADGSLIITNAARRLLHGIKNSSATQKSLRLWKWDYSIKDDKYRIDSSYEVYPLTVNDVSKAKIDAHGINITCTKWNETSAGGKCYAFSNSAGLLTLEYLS


Key:
Experiment in all cases: cryo-EM structure
TFIIIC subunit τ138 = molecular target: T1, TFIIIC subunit τ138
TFIIIC subunit τ95 = molecular target: T2, TFIIIC subunit τ95
TFIIIC subunit τ91 = molecular target: T3, TFIIIC subunit τ91

Row | binding result (TFIIIC subunit τ138) | binding result (TFIIIC subunit τ95) | binding result (TFIIIC subunit τ91) | Binder
1 | binds | binds |  | TFIIIC subunit τ55 (natural protein, S. cerevisiae, UniProt Q12415 1-435, looked up) MVVNTIYIARHGYRSNWLPEGPYPDPLTGIDSDVPLAEHGVQQAKELAHYLLSLDNQPEAAFASPFYRCLETVQPIAKLLEIPVYLERGIGEWYRPDRKPVIPVPAGYEILSKFFPGVISQEWDSTLTPNEKGETEQEMYMRFKKFWPLFIERVEKEYPNVECILLVTHAASKIALGMSLLGYDNPRMSLNENGDKIRSGSCSLDKYEILKKSYDTIDETDDQTSFTYIPFSDRKWVLTMNGNTEFLSSGEEMNWNFDCVAEAGSDADIKKRQMTKKTSSPIPEADDQTEVETVYISVDIPSGNYKERTEIAKSAILQYSGLETDAPLFRIGNRLYEGSWERLVGTELAFPNAAHVHKKTAGLLSPTEENETTNAGQSKGSSTANDPNIQIQEEDVGLPDSTNTSRDHTGDKEEVQSEKIYRIKERIVLSNVRPM
2 | binds |  | binds | TFIIIC subunit τ60 (natural protein, S. cerevisiae) MKLLKDLLVDRKEFEDWKNNLTWARDGTLYLTTFPDISIGQPKYAKDINCNSKNLFHVKEFPLEFENKLDFELAQQNGLLNSQPVCYPRVCKPSPIDDWMAVLSNNGNVSVFKDNKMLTNLDSKGNLSSRTYHCFEWNPIESSIVVGNEDGELQFFSIRKNSENTPEFYFESSIRLSDAGSKDWVTHIVWYEDVLVAALSNNSVFSMTVSASSHQPVSRMIQNASRRKITDLKIVDYKVVLTCPGYVHKIDLKNYSISSLKTGSLENFHIIPLNHEKESTILLMSNKTSYKVLLEDELHVTADNIIAPYLEKKFKKWSTIWNEFNNYETTLVIHGISLSPDGYSIAIVYDMERVAFKYKIASEQSFNIMFAPLYHTWTISERAVGLAWYQTYQIYNQSLPKLPENFSMNKKLLNGNYPISLDFQSYLNALMKSEEMRIIMFLNMTIDKPSILSFLEALYEYAINKKSELTNSFDLACVLSIAAILKREAPIYNGTLLMKNSFLEETFNLESFTADPETVTSTTNNTWKRCGVTLLPILTTHVKICPVSKQRVIDIKRDDLNDYGWFTRGLLERFNEISVYCGTTLEVM
